“And” between values parts separate entries of the source, which are not always exact repeats. Identical values can stand only once.
Tests used:
[1] = molecular target: RBDA7-S chimera (H77c E2 RBD with 7 Cys-to-Ala mutations fused to the N terminus of DHBV S antigen) (hepatitis C virus genotype 1a, H77c | duck hepatitis B virus) (UniProt P27958); assay: co-sedimentation + other: quantitative Western blot; gradient-purified VLP preparations; amount and proportion of E2 and S within VLPs quantified with Image Studio software; 4 consecutive preps
[2] = molecular target: Δ123A7-S chimera (H77c E2 Δ123 with 7 Cys-to-Ala mutations fused to the N terminus of DHBV S antigen) (hepatitis C virus genotype 1a, H77c | duck hepatitis B virus) (UniProt P27958); assay: as above

## duck hepatitis B virus (DHBV) small surface antigen (S) (natural protein)
[1]
  stoichiometry N (mol S per mol RBDA7-S): 4 and 10 and 7
[2]
  stoichiometry N (mol S per mol Δ123A7-S): 2 and 4

Source: publication PMC8906423
